Measured values: patent US20190225662A1 (VIB VZW, published 2019)
Blank lines part the entries; values can stand above or below the binder they belong to.

B1: sAPPα (Fc cleaved) (ligand)
chain: LEVPTDGNAGLLAEPQIAMFCGKLNMHMNVQNGKWESDPSGTKTCIGTKEGILQYCQEVYPELQITNVVEANQPVTIQNWCKRGRKQCKTHTHIVIPYRCLVGEFVSDALLVPDKCKFLHQERMDVCETHLHWHTVAKETCSEKSTNLHDYGMLLPCGIDKFRGVEFVCCPLAEESDSVDSADAEEDDSDVWWGGADTDYADGGEDKVVEVAEEEEVADVEEEEADDDEDVEDGDEVEEEAEEPYEEATERTTSTATTTTTTTESVEEVVRVPTTAASTPDAVDKYLETPGDENEHAHFQKAKERLEAKHRERMSQVMREWEEAERQAKNLPKADKKAVIQHFQEKVESLEQEAANERQQLVETHMARVEAMLNDRRRLALENYITALQAVPPRPHHVFNMLKKYVRAEQKDRQHTLKHFEHVRMVDPKKAAQIRSQVMTHLRVIYERMNQSLSLLYNVPAVAEEIQDEVDELLQKEQNYSDDVLANMISEPRISYGNDALMPSLTETKTTVELLPVNGEFSLDDLQPWHPFGVDSVPANTENEVEPVDARPAADRGLTTRPGSGLTNIKTEEISEVKMDAEFGHDSGFEVRHQK
notes: Made as an Fc fusion in HEK293 cells; also called soluble amyloid precursor protein α; purified sAPPα
B2: ExD-AcD fragment of APP695 (without Fc) (ligand)
chain: SVDSADAEEDDSDVWWGGADTDYADGGEDKVVEVAEEEEVADVEEEEADDDEDVEDGDEVEEEAEEPYEEATERTTSTATTTTTTTESVEEVVRVPTTAASTPD
notes: also called APP695 ExD-AcD fragment; sAPPα ExD-AcD
B3: Sushi domain 1 of the GABAB1a receptor, purified (receptor)
chain: TSEGCQIIHPPWEGGIRYRGLTRDQVKAINFLPVDYEIEYVCRGEREVVGPKVRKCLANGSWTDMDTPSRCV
notes: also called Sushi 1; sushi1

What was measured:
[1] = target: B3; experiment: ITC, sushi1 (300 µM) injected into sAPPα (30 µM); N is the fitted stoichiometry on the Molar Ratio axis
Procedure: (§1) All ITC experiments were carried out on a MicroCal iTC200 system. For ITC experiments involving APP constructs expressed in HEK293 cells, the purified GABABR1a-Sushi1 domain, sAPPα, CuBDAcD, AcD and CuBD constructs were buffer-exchanged by size exclusion chromatography in 20 mM Na-HEPES pH 7.0, 150 mM NaCl supplemented with 5 mM CaCl2. Concentrated samples were diluted and degassed before the experiment at the concentrations reported in the Fig. legends. sAPP fragments (all of them at 30 μM) were placed in the MicroCal sample cell and matching buffer was placed in the reference cell. Sushi1 (300 μM) was in the syringe and was injected into the cell in a series of 1 μL injections at 25° C. All the datasets were subtracted with a reference data consisting of serial injections of Sushi 1 in the cell, containing buffer only under the same conditions. For ITC experiments involving synthetic APP peptides, the Sushi-1 protein was dialysed overnight to PBS buffer. The 17-mer peptide was resuspended in H2O:acetonitrile (5:1) at a stock concentration of 3 mM, and diluted in PBS to 300 uM. In order to avoid buffer-buffer mismatches, the same amount of H2O:acetonitrile mixture was also added when diluting the protein to a 30 uM concentration. The 9-mer peptide was resuspended in PBS. Titrations comprised 26×1.5 μL injections of peptide into the protein, with 90 s intervals. […]

[2] = target: B3; experiment: ITC, peptide (300 uM) injected into Sushi-1 protein (30 uM), PBS; 17mer peptide, APP695 204-220
Procedure: as §1

[3] = target: B3; experiment: ITC of the synthetic peptide with purified sushi 1 (peptide injected into the protein); N is the fitted stoichiometry
Procedure: as §1

[4] = target: B3; experiment: ITC with purified sushi 1
Procedure: as §1

[5] = target: B3; experiment: ITC, sushi1 (300 µM) injected into ExD-AcD (30 µM); N is the fitted stoichiometry on the Molar Ratio axis
Procedure: as §1

[6] = target: B3; experiment: ITC of the synthetic peptide … (211-220) with purified sushi 1
Procedure: as §1

sAPPα (Fc cleaved) = target: B1; experiment: ITC, Sushi1 (300 µM) injected into sAPPα (30 µM), 25° C.
Procedure: as §1

[7] = target: B2; experiment: ITC, sushi1 (300 µM) injected into ExD-AcD (30 µM)
Procedure: as §1

Binder: B1
N [1]: 1.12

Binder: B2
molar ratio [4]: ~1 | N [5]: 1.16

Binder: B3
Kd (sAPPα (Fc cleaved)): 431 nM | Kd [7]: 621 nM

Binder: DDSDVWWGG (also called 204-212AA) [synthetic 9mer peptide, APP695 residues 204-212]
N [3]: 0.96

Further lines, results first:

Kd [2]: 810 nM | N [3]: 0.72
Binder: DDSDVWWGGADTDYADG (also called 17AA stretch) [synthetic 17mer peptide, APP695 204-220AA]

binding result [6]: no binding
Binder: GGADTDYADG [synthetic peptide, APP695 residues 211-220]
